Consider seven variants from FireProtDB (doi:10.1021/bi801431x).

Sequences and labels used below:
B1: Aspartate aminotransferase, P00509 (parent)
chain: MFENITAAPADPILGLADLFRADERPGKINLGIGVYKDETGKTPVLTSVKKAEQYLLENETTKNYLGIDGIPEFGRCTQELLFGKGSALINDKRARTAQTPGGTGALRVAADFLAKNTSVKRVWVSNPSWPNHKSVFNSAGLEVREYAYYDAENHTLDFDALINSLNEAQAGDVVLFHGCCHNPTGIDPTLEQWQTLAQLSVEKGWLPLFDFAYQGFARGLEEDAEGLRAFAAMHKELIVASSYSKNFGLYNERVGACTLVAADSETVDRAFSQMKAAIRANYSNPPAHGASVVATILSNDALRAIWEQELTDMRQRIQRMRQLFVNTLQEKGANRDFSFIIKQNGMFSFSGLTKEQVLRLREEFGVYAVASGRVNVAGMTPDNMAPLCEAIVAVL

“And” between values parts separate entries of the source, which are not always exact repeats. Equal values may be shown once.

This data set covers variants of B1. The settings on record: Escherichia coli (strain K12); pH 7.5; 25 °C; Urea; Fluorescence; Potassium phosphate 20 mM; reversible: Yes; structure 1AMQ; whole UniProt chain shown.

As for MFENITAAPADPILGLADLFRADERPGKINLGIGVYKDETGKTPVLTSVKKAEQYLLENETTKNYLGIDGIPEFGRCTQELLFGKGSALINDKRARTAQTPGGTGALRVAADFLAKNTSVKRVWVSNPSWPNHKSVFNSAGLEVREYAYYDAENHTLDFDALINSLNEAQAGDVVLFHGCCHNPTGIDPTLEQWQTLAQLSVEKGWLPLFDFAYQGFARGLEEDAEGLRAFAAMHKELIVASSYSKNFGLYNEKVGACTLVAADSETVDRAFSQMKAAIRANYSNPPAHGASVVATILSNDALRAIWEQELTDMRQRIQRMRQLFVNTLQEKGANRDFSFIIKQNGMFSFSGLTKEQVLRLREEFGVYAVASGRVNVAGMTPDNMAPLCEAIVAVL [R254K], the “ddG of mutation (higher = less stable)” value was 7.6 kcal/mol and 5 kcal/mol.

For the variant MFENITAAPADPILGLADLFRADERPGKINLGIGVYKDETGKTPVLTSVKKAEQYLLENETTENYLGIDGIPEFGRCTQELLFGKGSALINDKRARTAQTPGGTGALRVAADFLAKNTSVKRVWVSNPSWPNHKSVFNSAGLEVREYAYYDAENHTLDFDALINSLNEAQAGDVVLFHGCCHNPTGIDPTLEQWQTLAQLSVEKGWLPLFDFAYQGFARGLEEDAEGLRAFAAMHKELIVASSYSKNFGLYNERVGACTLVAADSETVDRAFSQMKAAIRANYSNPPAHGASVVATILSNDALRAIWEQELTDMRQRIQRMRQLFVNTLQEKGANRDFSFIIKQNGMFSFSGLTKEQVLRLREEFGVYAVASGRVNVAGMTPDNMAPLCEAIVAVL [K63E], the “ddG of mutation (higher = less stable)” value worked out at 4.5 kcal/mol; the “denaturant midpoint (higher = more stable)” value (shortened to “denaturant midpoint”) is 2.93 M and 3.9 M and 5.01 M.

MFENITAAPADPILGLADLFRADERPGKINLGIGVYKDETGKTPVLTSVKKAEQYLLENETTMNYLGIDGIPEFGRCTQELLFGKGSALINDKRARTAQTPGGTGALRVAADFLAKNTSVKRVWVSNPSWPNHKSVFNSAGLEVREYAYYDAENHTLDFDALINSLNEAQAGDVVLFHGCCHNPTGIDPTLEQWQTLAQLSVEKGWLPLFDFAYQGFARGLEEDAEGLRAFAAMHKELIVASSYSKNFGLYNERVGACTLVAADSETVDRAFSQMKAAIRANYSNPPAHGASVVATILSNDALRAIWEQELTDMRQRIQRMRQLFVNTLQEKGANRDFSFIIKQNGMFSFSGLTKEQVLRLREEFGVYAVASGRVNVAGMTPDNMAPLCEAIVAVL [K63M]: the “ddG of mutation (higher = less stable)” value was 5.4 kcal/mol and 4.7 kcal/mol; the “denaturant midpoint” value was 2.71 M and 2.81 M and 4.29 M.

MFANITAAPADPILGLADLFRADERPGKINLGIGVYKDETGKTPVLTSVKKAEQYLLENETTKNYLGIDGIPEFGRCTQELLFGKGSALINDKRARTAQTPGGTGALRVAADFLAKNTSVKRVWVSNPSWPNHKSVFNSAGLEVREYAYYDAENHTLDFDALINSLNEAQAGDVVLFHGCCHNPTGIDPTLEQWQTLAQLSVEKGWLPLFDFAYQGFARGLEEDAEGLRAFAAMHKELIVASSYSKNFGLYNERVGACTLVAADSETVDRAFSQMKAAIRANYSNPPAHGASVVATILSNDALRAIWEQELTDMRQRIQRMRQLFVNTLQEKGANRDFSFIIKQNGMFSFSGLTKEQVLRLREEFGVYAVASGRVNVAGMTPDNMAPLCEAIVAVL [E3A]: the “ddG of mutation (higher = less stable)” value was 3.8 kcal/mol and 3 kcal/mol.

Consider MFENITAAPADPILGLADLFRADERPGKINLGIGVYKDETGKTPVLTSVKKAEQYLLENETTKNYLGIDGIPEFGRCTQELLFGKGSALINDKRARTAQTPGGTGALRVAADFLAKNTSVKRVWVSNPSWPNHKSVFNSAGLEVREYAYYDAENHTLDFDALINSLNEAQAGDVVLFHGCCHNPTGIDPTLEQWQTLAQLSVEKGWLPLFDFAYQGFARGLEEDAEGLRAFAAMHKELIVASSYSKNFGLYNERVGACTLVAADSETVDRAFSQMKAAIRADYSNPPAHGASVVATILSNDALRAIWEQELTDMRQRIQRMRQLFVNTLQEKGANRDFSFIIKQNGMFSFSGLTKEQVLRLREEFGVYAVASGRVNVAGMTPDNMAPLCEAIVAVL [N282D], for which the “ddG of mutation (higher = less stable)” value is -0.8 kcal/mol; the “denaturant midpoint” value was 4.15 M and 4.9 M and 5.13 M.

As for MFENITAAPADPILGLADLFRADERPGKINLGIGVYKDETGKTPVLTSVKKAEQYLLENETTKNYLGIDGIPEFGRCTQELLFGKGSALINDKRARTAQTPGGTGALRVAADFLAKNTSVKRVWVSNPSWPNHKSVFNSAGLEVREYAYYDAENHTLDFDALINSLNEAQAGDVVLFHGCCHNPTGIDPTLEQWQTLAQLSVEKGWLPLFDFAYQGFARGLEEDAEGLRAFAAMHKELIVASSYSKNFGLYNERVGACTLVAADSETVDRAFSQMKAAIRARYSNPPAHGASVVATILSNDALRAIWEQELTDMRQRIQRMRQLFVNTLQEKGANRDFSFIIKQNGMFSFSGLTKEQVLRLREEFGVYAVASGRVNVAGMTPDNMAPLCEAIVAVL [N282R], the “ddG of mutation (higher = less stable)” value came to 2.6 kcal/mol; the “denaturant midpoint” value was 3.3 M and 5.17 M.

On to MFENITAAPADPILGLADLFRADERPGKINLGIGVYKDETGKTPVLTSVKKAEQYLLENETTKNYLGIDGIPEFGRCTQELLFGKGSALINDKRARTAQTPGGTGALRVAADFLAKNTSVKRVWVSNPSWPNHKSVFNSAGLEVREYAYYDAENHTLDFDALINSLNEAQAGDVVLFHGCCHNPTGIDPTLEQWQTLAQLSVEKGWLPLFDFAYQGFARGLEEDAEGLRAFAAMHKELIVASSYSKNFGLYNERVGACTLVAADSETVDRAFSQMKAAIRANYSRPPAHGASVVATILSNDALRAIWEQELTDMRQRIQRMRQLFVNTLQEKGANRDFSFIIKQNGMFSFSGLTKEQVLRLREEFGVYAVASGRVNVAGMTPDNMAPLCEAIVAVL [N285R], for which the “ddG of mutation (higher = less stable)” value was 4.4 kcal/mol and 5.9 kcal/mol; the “denaturant midpoint” value is 2.91 M and 2.66 M and 4.24 M.
